The values that follow come from the supplement of paper PMC9112550, “Optimization of the antimicrobial peptide Bac7 by deep mutational scanning” (BMC Biology, 2022).
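Note: peptides expressed intracellularly from a pBAD plasmid library in pooled LB shake-flask culture, induced with 0.3% L-arabinose, DNA abundance read by NGS, three biological replicates, DESeq2 with apeglm shrinkage.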

This data set deals with Escherichia coli TOP10. Kind of data set: shrunken log2 fold change of peptide-encoding DNA abundance (4.5 h post-induction vs induction); higher = less antimicrobial activity (less host growth inhibition). Conditions: time post-induction: 4.5 h; library: site-saturation at positions 5, 18, 19, 20.
Turning to RRIRDRPPRLPRPRPRPQRVPRP, the “shrunken log2 fold change” value is 0.143.
Next, RRIRLRPPRLPRPRPRPGKQPRP: 0.0284.
Next, RRIRDRPPRLPRPRPRPFHYPRP: -0.00232; RRIRVRPPRLPRPRPRPKSFPRP: 0.217.
RRIRIRPPRLPRPRPRPREDPRP: the “shrunken log2 fold change” value is -0.036.
Next, RRIRSRPPRLPRPRPRPTVKPRP: -0.188; RRIRKRPPRLPRPRPRPNPCPRP: 0.117; RRIRQRPPRLPRPRPRPIRKPRP: -0.0469.
Next, RRIRMRPPRLPRPRPRPLYQPRP: -0.38.
Next, RRIRGRPPRLPRPRPRPEARPRP: 1.54; RRIRLRPPRLPRPRPRPTMEPRP: 0.274.
On to RRIRLRPPRLPRPRPRPISIPRP, for which the “shrunken log2 fold change” value worked out at 0.111.
Next, RRIRYRPPRLPRPRPRPHRTPRP: -0.527; RRIRRRPPRLPRPRPRPLIVPRP: -0.0866; RRIRGRPPRLPRPRPRPSTCPRP: 0.18.
RRIRCRPPRLPRPRPRPTIKPRP: the “shrunken log2 fold change” value was -0.364.
Next, RRIRYRPPRLPRPRPRPKDYPRP: -0.787; RRIRQRPPRLPRPRPRPFCYPRP: -0.264.
Next, RRIRWRPPRLPRPRPRPYTVPRP: -0.29; RRIRWRPPRLPRPRPRPLAMPRP: 0.0898.
Next, RRIRLRPPRLPRPRPRPKKGPRP: -0.166; RRIRCRPPRLPRPRPRPNWKPRP: 0.0151; RRIRKRPPRLPRPRPRPGGAPRP: 0.729.
For RRIRNRPPRLPRPRPRPCLKPRP, the “shrunken log2 fold change” value is -0.315.
Next, RRIRWRPPRLPRPRPRPSFPPRP: -0.0295; RRIRWRPPRLPRPRPRPSDIPRP: -0.031; RRIRNRPPRLPRPRPRPCFRPRP: -0.241.
Next, RRIRKRPPRLPRPRPRPITTPRP: -0.174; RRIRGRPPRLPRPRPRPQRWPRP: 0.293; RRIRLRPPRLPRPRPRPMLAPRP: 0.369.
Next, RRIRLRPPRLPRPRPRPMTCPRP: -0.252; RRIRVRPPRLPRPRPRPKVAPRP: 0.12; RRIRNRPPRLPRPRPRPNHAPRP: -0.0192.
In the case of RRIRERPPRLPRPRPRPNAQPRP, the “shrunken log2 fold change” value turned out to be 0.138.
In the case of RRIRPRPPRLPRPRPRPNIFPRP, the “shrunken log2 fold change” value is -0.189.
Next, RRIRIRPPRLPRPRPRPNCPPRP: -0.231; RRIRVRPPRLPRPRPRPAVDPRP: 0.192; RRIRKRPPRLPRPRPRPVPIPRP: 0.177.
Next, RRIRKRPPRLPRPRPRPHVWPRP: 0.82.
Next, RRIRGRPPRLPRPRPRPVIMPRP: 0.258; RRIRFRPPRLPRPRPRPAFRPRP: 0.132.
RRIRIRPPRLPRPRPRPRTMPRP: the “shrunken log2 fold change” value was -0.377.
Next, RRIRSRPPRLPRPRPRPVFPPRP: -0.118; RRIRKRPPRLPRPRPRPRSFPRP: -0.0333.
Next, RRIRFRPPRLPRPRPRPKSPPRP: -0.143; RRIRSRPPRLPRPRPRPVSMPRP: 0.0888; RRIRFRPPRLPRPRPRPAIYPRP: -0.999.
Next, RRIRVRPPRLPRPRPRPFYPPRP: -0.441; RRIRKRPPRLPRPRPRPVSGPRP: 0.233.
With RRIRDRPPRLPRPRPRPWWGPRP, the “shrunken log2 fold change” value was -0.00301.
Next, RRIRSRPPRLPRPRPRPHLNPRP: -0.158; RRIRWRPPRLPRPRPRPDPSPRP: -0.0349; RRIRKRPPRLPRPRPRPPDRPRP: 0.862.
Next, RRIRIRPPRLPRPRPRPDWKPRP: 0.036.
Take RRIRHRPPRLPRPRPRPCCEPRP: the “shrunken log2 fold change” value was -0.366.
On to RRIRHRPPRLPRPRPRPGMMPRP, for which the “shrunken log2 fold change” value was 0.00873.
Next, RRIRVRPPRLPRPRPRPIACPRP: 0.0889; RRIRVRPPRLPRPRPRPGCDPRP: 0.952.
In the case of RRIRSRPPRLPRPRPRPNYCPRP, the “shrunken log2 fold change” value is -0.352.
Next, RRIRKRPPRLPRPRPRPPYNPRP: -0.149; RRIRQRPPRLPRPRPRPADPPRP: 0.209.
Next, RRIRRRPPRLPRPRPRPAQVPRP: -0.0303.
Next, RRIRKRPPRLPRPRPRPIFTPRP: 0.118; RRIRPRPPRLPRPRPRPHVWPRP: 0.51.
Regarding RRIRSRPPRLPRPRPRPEKMPRP, the “shrunken log2 fold change” value is 0.061.
As to RRIRSRPPRLPRPRPRPDNEPRP, the “shrunken log2 fold change” value was -0.0519.
Next, RRIRCRPPRLPRPRPRPRRQPRP: 0.403; RRIRERPPRLPRPRPRPDEKPRP: 0.147; RRIRGRPPRLPRPRPRPPFCPRP: 0.592.
Next, RRIRVRPPRLPRPRPRPGFTPRP: -0.143; RRIRCRPPRLPRPRPRPHWWPRP: 0.0398; RRIRIRPPRLPRPRPRPWQPPRP: -0.0185.
Next, RRIRERPPRLPRPRPRPISYPRP: -0.0746.
As for RRIRRRPPRLPRPRPRPIRTPRP, the “shrunken log2 fold change” value turned out to be 0.4.
Next, RRIRNRPPRLPRPRPRPVCWPRP: 0.469.
Regarding RRIRFRPPRLPRPRPRPLWGPRP, the “shrunken log2 fold change” value stood at 0.251.
Next, RRIRGRPPRLPRPRPRPWFPPRP: -0.132; RRIRKRPPRLPRPRPRPGMWPRP: 0.438.
Next, RRIRYRPPRLPRPRPRPTMTPRP: -0.859; RRIRTRPPRLPRPRPRPALIPRP: 0.0272.
Next, RRIRHRPPRLPRPRPRPNVCPRP: -0.0562; RRIRMRPPRLPRPRPRPFCCPRP: 0.534.
As for RRIRQRPPRLPRPRPRPSDLPRP, the “shrunken log2 fold change” value is -0.333.
Next, RRIRKRPPRLPRPRPRPFDLPRP: 0.0686; RRIRLRPPRLPRPRPRPLEGPRP: 0.765; RRIRIRPPRLPRPRPRPVRFPRP: -0.16.
RRIRHRPPRLPRPRPRPITRPRP: the “shrunken log2 fold change” value was -0.0356.
Next, RRIRLRPPRLPRPRPRPNQSPRP: -0.0737; RRIRMRPPRLPRPRPRPNKFPRP: 0.0721; RRIRSRPPRLPRPRPRPLPEPRP: 0.278.
Next, RRIRDRPPRLPRPRPRPQLNPRP: -0.267.
